2 molecules from PMC6016246, “Cytokinin Signaling in Mycobacterium tuberculosis” (mBio, 2018) can be followed below.

Series [1] concerns the target T1, Rv0078 R48M (Mycobacterium tuberculosis, UniProt O53623 1-201, R48M).
T1 sequence: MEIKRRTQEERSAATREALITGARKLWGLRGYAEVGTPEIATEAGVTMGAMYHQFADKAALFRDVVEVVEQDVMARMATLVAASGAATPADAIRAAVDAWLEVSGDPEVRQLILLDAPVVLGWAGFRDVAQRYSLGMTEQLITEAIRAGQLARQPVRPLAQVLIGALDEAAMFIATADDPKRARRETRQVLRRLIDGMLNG
The series can be described thus: EMSA; […], room temperature 30 min; […], buffer not stated. As to conditions: protein: recombinant; chain copies: 2; label: 5'-IRDye700 on S21.

Series [2] addresses T2, Rv0078 (Mycobacterium tuberculosis, UniProt O53623 1-201).
T2 sequence: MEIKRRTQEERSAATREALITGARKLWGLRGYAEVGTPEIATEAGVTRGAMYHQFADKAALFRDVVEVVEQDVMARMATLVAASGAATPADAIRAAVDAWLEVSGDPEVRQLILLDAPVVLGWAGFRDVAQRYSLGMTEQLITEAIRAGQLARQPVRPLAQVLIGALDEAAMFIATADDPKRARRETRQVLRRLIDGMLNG
The description is as above. The note with it: protein: recombinant; tags: C-terminal His6; chain copies: 4; label: IRDye700.

B1: +19/-14 (WT) (dsDNA)
DNA 1: GTACATTTACAAGCAGACTGCCGGTAACTTACCCCAGACCAGGGCAC
DNA 2: GTGCCCTGGTCTGG
DNA 3: GGTAAGTTACCGGCAGTCTGCTTGTAAATGTAC
As to B1, the binding result in series [1] is reported as “no binding”.

B2: probe S1 (central dimer G-to-A) (dsDNA)
DNA 1: GTACATTTACAAGTAGACTACCGGTAACTTACC
DNA 2: GGTAAGTTACCGGTAGTCTACTTGTAAATGTAC
On to B2, for which the binding result in series [2] is reported as “no binding”.
